Results: paper PMC10279719 (Nature Communications, 2023)
Non-standard residues stand in square brackets, D forms with d. pY = N[C@@H](Cc1ccc(OP(=O)(O)O)cc1)C(=O)O

B1: CrkII SH2-NSH3 construct lacking the CSH3 domain (CrkIIΔCSH3) (domain or fragment, human, UniProt P46108-1 1-228, looked up)
chain: MAGNFDSEERSSWYWGRLSRQEAVALLQGQRHGVFLVRDSSTSPGDYVLSVSENSRVSHYIINSSGPRPPVPPSPAQPPPGVSPSRLRIGDQEFDSLPALLEFYKIHYLDTTTLIEPVSRSRQGSGVILRQEEAEYVRALFDFNGNDEEDLPFKKGDILRIRDKPEEQWWNAEDSEGKRGMIPVPYVEKYRPASASVSALIGGNQEGSHPQPLGGPEPGPYAQPSVNT
notes: CrkII, human, residues 1-228
B2: CrkII SH2 domain (CrkIISH2) (domain or fragment, human, UniProt P46108-1 6-120, looked up)
chain: DSEERSSWYWGRLSRQEAVALLQGQRHGVFLVRDSSTSPGDYVLSVSENSRVSHYIINSSGPRPPVPPSPAQPPPGVSPSRLRIGDQEFDSLPALLEFYKIHYLDTTTLIEPVSR
modifications: biotin (EZ-Link NHS-PEG4-Biotin) in the SPR experiment only
notes: CrkII, human, UniProt P46108-1, residues 6-120; Purifies as monomer with a proportion of dimer
B3: CrkII^∆CSH3 (SH2-NSH3, residues 1–228) (domain or fragment, human, UniProt P46108-1 1-228, looked up)
chain: B1 chain
notes: human CrkII residues 1-228, lacking the CSH3 domain
B4: CrkII SH2 domain (CrkII^SH2, residues 6–120) (domain or fragment, human, UniProt P46108-1 6-120, looked up)
chain: B2 chain
modifications: biotin (EZ-Link NHS-PEG4-Biotin) where immobilised for SPR
notes: human CrkII residues 6-120, SH2 domain
B5: PEAK1^IDR1 (human PEAK1 residues 1082–1746) (domain or fragment, UniProt Q9H792 1082-1746, looked up)
chain: LPELEREDGKEDISDPMDPNPCSATYSNLGQSRAAMIPPKQPRQPKGAVDDAIAFGGKTDQEAPNASQPTPPPLPKKMIIRANTEPISKDLQKSMESSLCVMANPTYDIDPNWDASSAGSSISYELKGLDIESYDSLERPLRKERPVPSAANSISSLTTLSIKDRFSNSMESLSSRRGPSCRQGRGIQKPQRQALYRGLENREEVVGKIRSLHTDALKKLAVKCEDLFMAGQKDQLRFGVDSWSDFRLTSDKPCCEAGDAVYYTASYAKDPLNNYAVKICKSKAKESQQYYHSLAVRQSLAVHFNIQQDCGHFLAEVPNRLLPWEDPDDPEKDEDDMEETEEDAKGETDGKNPKPCSEAASSQKENQGVMSKKQRSHVVVITREVPCLTVADFVRDSLAQHGKSPDLYERQVCLLLLQLCSGLEHLKPYHVTHCDLRLENLLLVHYQPGGTAQGFGPAEPSPTSSYPTRLIVSNFSQAKQKSHLVDPEILRDQSRLAPEIITATQYKKCDEFQTGILIYEMLHLPNPFDENPELKEREYTRADLPRIPFRSPYSRGLQQLASCLLNPNPSERILISDAKGILQCLLWGPREDLFQTFTACPSLVQRNTLLQNWLDIKRTLLMIKFAEKSLDREGGISLEDWLCAQYLAFATTDSLSCIVKILQHR
modifications: biotin (EZ-Link NHS-PEG4-Biotin) where immobilised for SPR; no phosphorylation observed at the tandem 14-3-3 motif
notes: human PEAK1 residues 1082-1746 (part of the IDR with Y1107 and the tandem site, SHED and PsK domains); the His tag is TEV-cleavable; also called PEAK1^IDR1 dimer; not shown: His tag, N-terminal, kept
B6: PEAK1 1150-1162 proline-rich motif peptide (Ac-PTPPPLPKKMIIR-NH2) (peptide)
peptide: Ac-PTPPPLPKKMIIR-NH2
notes: source: synthetic peptide, bought: Mimotopes (95% purity)
B7: PEAK1 1106-1121-pY1107 peptide (Ac-T(pY)SNLGQSRAAMIPPK-NH2) (peptide)
peptide: Ac-T[pY]SNLGQSRAAMIPPK-NH2
notes: human PEAK1 residues 1106-1121; source: synthetic peptide, bought: Mimotopes (95% purity)
B8: PEAK2 809-821 proline-rich motif peptide (Ac-QPPPLPQKKIVSR-NH2) (peptide)
peptide: Ac-QPPPLPQKKIVSR-NH2
notes: human PEAK2 (SgK223, PRAG1) residues 809-821; source: synthetic peptide, bought: Mimotopes (95% purity)
B9: PEAK SH2-pY consensus peptide (Ac-T(pY)SNLGQ-NH2) (peptide)
peptide: Ac-T[pY]SNLGQ-NH2
notes: also called consensus pY peptide; SH2-pY peptide; source: synthetic peptide, bought: Mimotopes (95% purity)
B10: full length CrkII, monomer (CrkII^FL monomer) (natural protein, human, UniProt P46108-1 1-304, looked up)
chain: MAGNFDSEERSSWYWGRLSRQEAVALLQGQRHGVFLVRDSSTSPGDYVLSVSENSRVSHYIINSSGPRPPVPPSPAQPPPGVSPSRLRIGDQEFDSLPALLEFYKIHYLDTTTLIEPVSRSRQGSGVILRQEEAEYVRALFDFNGNDEEDLPFKKGDILRIRDKPEEQWWNAEDSEGKRGMIPVPYVEKYRPASASVSALIGGNQEGSHPQPLGGPEPGPYAQPSVNTPLPNLQNGPIYARVIQKRVPNAYDKTALALEVGELVKVTKINVSGQWEGECNGKRGHFPFTHVRLLDQQNPDEDFS
modifications: biotin (EZ-Link NHS-PEG4-Biotin, 1:1 molar ratio) where it was immobilised (a1)
notes: full length human CrkII, printed as UniProt P46108-1, residues 1-330
B11: full length CrkII, dimer (CrkII^FL dimer) (natural protein, human, UniProt P46108-1 1-304, looked up)
chain: B10 chain
modifications: biotin (EZ-Link NHS-PEG4-Biotin, 1:1 molar ratio) where it was immobilised (a1)
notes: as for B10

How the values were obtained:
[1] = target: the molecule itself; assay: SEC; S75 16/600 profile of the purified CrkII constructs, with SDS-PAGE of fractions
[2] = target: the molecule itself; assay: SEC; single purified proteins on Superdex 200 (purification and re-runs), 20 mM HEPES pH 7.5–8.5, 150 mM NaCl, 1 mM TCEP; oligomeric state
[3] = target: T1, CrkII N-terminal SH3 domain (CrkII^NSH3, residues 134-191) (human, UniProt P46108-1 134-191); assay: SPR; CrkII NSH3 amine coupled to a CM5 chip, PRM peptides as analytes (100 µM-100 nM); Biacore S200, 20 °C, HBS-TP; steady state, 1:1 model; conditions: both partners purified
T1 construct: human CrkII NSH3 domain, UniProt P46108-1, residues 134-191; Amine coupled to a CM5 chip in a2; analyte in a4; in the syringe in ITC

[4] = target: T2, CrkII SH2 domain (CrkII^SH2, residues 6-120) (human, UniProt P46108-1 6-120, biotin (EZ-Link NHS-PEG4-Biotin, 1:1 molar ratio) where it was immobilised (a1)); assay: SPR; biotinylated adapter proteins captured with a biotin CAPture kit, pY peptides as analytes; Biacore 8K+, 20 °C, HBS-TP (20 mM HEPES pH 7.4, 150 mM NaCl, 1 mM TCEP, 0.005% Tween-P20) with 2% DMSO; 1 M NaCl regeneration; steady state, 1:1 model; conditions: both partners purified
T2 construct: human CrkII SH2 domain, UniProt P46108-1, residues 6-120; The His tag is TEV-cleavable and was cleaved 'when required'

[5] = target: B10; assay: as above; conditions: both partners purified
[6] = target: B11; assay: as above; conditions: both partners purified
[7] = target: T3, PEAK1^IDR1 (residues 1082-1746), from insect cells, phosphorylated by Src (human, UniProt Q9H792 1082-1746, phosphotyrosine at Y1107 (by Src in vitro, shown by MS/MS); other Src sites not stated; biotin (EZ-Link NHS-PEG4-Biotin, 1:1 molar ratio)); assay: SPR; biotinylated PEAK proteins (with or without Src phosphorylation) captured with a biotin CAPture kit; Grb2 FL, Grb2 SH2, CrkII SH2, CrkII FL monomer or dimer as analytes; Biacore 8K+, 20 °C, HBS-TP with NaCl raised to 500 mM; 1 M NaCl regeneration; steady state; conditions: both partners purified
T3 construct: human PEAK1, UniProt Q9H792, residues 1082-1746; also called PEAK1-IDR1 (+ Src phosphorylation); source: Sf21 insect cells, purified; phosphorylated in vitro with recombinant Src kinase domain
T3 sequence (looked up): B5 chain

[8] = target: T4, PEAK2^IDR1 (residues 802-1406), from insect cells, phosphorylated by Src (human, UniProt Q86YV5 802-1406, phosphorylated with Src kinase, sites not stated; phosphorylation of the tandem site 14-3-3 motif (RAASSP) found by proteomic analysis; biotin (EZ-Link NHS-PEG4-Biotin, 1:1 molar ratio)); assay: as above; conditions: both partners purified
T4 construct: human PEAK2 (SgK223, PRAG1), UniProt Q86YV5, residues 802-1406; also called PEAK2-IDR1 (+ Src phosphorylation); source: Sf21 insect cells, purified; phosphorylated in vitro with recombinant Src kinase domain
T4 sequence (looked up): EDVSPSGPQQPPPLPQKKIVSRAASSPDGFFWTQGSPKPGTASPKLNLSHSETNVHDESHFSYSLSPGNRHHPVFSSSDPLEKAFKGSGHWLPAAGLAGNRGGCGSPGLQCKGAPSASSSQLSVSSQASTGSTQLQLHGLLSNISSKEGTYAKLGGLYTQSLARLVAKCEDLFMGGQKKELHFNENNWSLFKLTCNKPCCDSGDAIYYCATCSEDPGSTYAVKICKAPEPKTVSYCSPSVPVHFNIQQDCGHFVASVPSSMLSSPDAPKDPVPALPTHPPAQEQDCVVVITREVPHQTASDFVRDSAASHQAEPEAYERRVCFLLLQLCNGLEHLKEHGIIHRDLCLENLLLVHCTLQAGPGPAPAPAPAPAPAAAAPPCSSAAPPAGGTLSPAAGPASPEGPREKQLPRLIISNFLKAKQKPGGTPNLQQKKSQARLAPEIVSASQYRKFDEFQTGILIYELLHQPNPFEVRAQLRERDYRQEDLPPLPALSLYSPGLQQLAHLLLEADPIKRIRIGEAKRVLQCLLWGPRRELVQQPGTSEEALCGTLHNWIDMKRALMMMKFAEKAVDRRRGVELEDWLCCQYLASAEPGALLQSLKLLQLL

B1: binds [1].

B2: binds [1].

B3: binds [2].

B4: binds [2].

B5: binds [2].

Work on B6 yielded a Kd [3] of 0.9 µM.

B7 gave a Kd [4] of 3.2 µM, a Kd [5] of 3.5 µM and a Kd [6] of 3.1 µM.

Binder B8 has a Kd [3] of 2.4 µM.

B9 was tested, and the Kd [4] was 8.8 µM, the Kd [5] was 14.5 µM and the Kd [6] was 12.7 µM.

Work on B10 yielded a Kd [7] of 1.5 µM and a Kd [8] of 2.12 µM.

Binder B11 has a Kd [7] of 1.49 µM and a Kd [8] of 1.38 µM.
